Measurements reported in the supplement of paper PMC9170038.

Columns and labels:
[1] = test system: MS2 coat protein; assay: apparent KD of MS2 coat protein; higher = weaker reporter binding; conditions: Eterna round: R107
Experimental: (§1)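 RNA-MaP round R107: designed RNA switches with theophylline, tryptophan, arginine or FMN aptamers are transcribed on-chip within common flanks. They are titrated with SNAP-549-labelled MS2 coat protein in RNA-MaP buffer (100 mM Tris pH 7.5, 80 mM KCl, 4 mM MgCl2), without ligand or with the indicated ligand. Median apparent KD per design.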

[2] = test system: K4 kissing-loop RNA reporter; assay: apparent KD of K4 kissing-loop reporter; higher = weaker reporter binding; conditions: Eterna round: R107;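 note: bound reporter read as fluorescence of individual clusters on recovered sequencing chips by microscopy, with normalized cluster intensities fitted with a binding model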
Experimental: as §1, with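 “a labelled K4 kissing-loop RNA reporter” for “SNAP-549-labelled MS2 coat protein”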

[3] = input ligand: theophylline 20 uM
[4] = input ligand: theophylline 2 mM
[5] = input ligand: tryptophan 2.4 mM

| Sequence | apparent KD of MS2 coat protein ([1]; input ligand: arginine 13.2 mM) | apparent KD of MS2 coat protein ([1]; input ligand: none) | apparent KD of MS2 coat protein [1, 3] | apparent KD of MS2 coat protein [1, 4] | apparent KD of MS2 coat protein [1, 5] | apparent KD of K4 kissing-loop reporter ([2]; input ligand: FMN 200 uM) | apparent KD of K4 kissing-loop reporter ([2]; input ligand: arginine 13.2 mM) | apparent KD of K4 kissing-loop reporter ([2]; input ligand: none) | apparent KD of K4 kissing-loop reporter [2, 3] | apparent KD of K4 kissing-loop reporter [2, 5] |
| --- | --- | --- | --- | --- | --- | --- | --- | --- | --- | --- |
| AAGCGCACAUGAGGAUCACCCAUGUGCGGCCGAGGACCGGUACGGCCGCCACUCGGAACUAGAAAUAGGAACGGGUAGUGCGCAA [TryptophanA Sol_1] | 10.6 nM | 11.7 nM | 13.3 nM | 13.6 nM | 10.9 nM | – | – | – | – | – |
| AAGCUGCCAAGAACAUGGGUGAAAUGUGAUACCAGCUAGGAAACUAGCCCUUGGCAGCACAUGAGGAUCACCCAUGUAAUAAUAA [(T)'-(M)'-(T1)-(T2)-(M1)-(M2)_Design2_2/19/17] | 75.7 nM | – | 264 nM | – | 377 nM | – | – | – | – | – |
| AAGGGUGAGUCUCUAAUCCGUUUGACGGAUACCAGCGAGAGAUAUCGCCCUUGGCAGCCGACGACAUGAGGAUCACCCAUGUAAA [Exclusion - Theophylline A] | 17 nM | – | 22 nM | – | 14 nM | – | – | – | – | – |
| AAGGUAUCACAGAGGUGAUUCAACUGUGAUACCAGCUAGGAAACUAGCCCUUGGCAGCACAUGAGGAUCACCCAUGUAAGAAUAA [(T)'-(M)'-(T1)-(T2)-(M1)-(M2)_Design3_2/19/17] | 36.3 nM | 36.5 nM | 33.6 nM | 128 nM | 37.1 nM | – | – | – | – | – |
| AAGGUGAUCCGUGAUACCAGCUCAACAUGAGGAUCACCCAUGUAACGGACGAAAGUCCGGAGCCCUUGGCAGCACGGUUGCCAAG [(M)'-(Theo1)-(Ms2)-(Theo2)-(M'')-(T2)'_Design1b] | 29.4 nM | 127 nM | 62 nM | 12.5 nM | 83.8 nM | – | – | – | – | – |
| UUUCGUUGAAGUGAUACCAGACUUGAAAGUGAUGUUUUCCAAUAAAUUAAAUUAUUAGCUGUCCCUUGGCAGCACAGUUUAUUUA [JR_ExcTheophyB_Sub006] | – | – | – | – | – | 205 nM | 345 nM | 301 nM | 389 nM | 186 nM |
| UUUGGUUGUGGUGUUGAUUAGGGAGCGGAAGGAGCGCCGAGGAGGGCAGGUAGGUCGCCGGAAUGUAGUGAUGUUGCAUAGAGGU [ExArgA.Ad] | – | – | – | – | – | 325 nM | 277 nM | 198 nM | 603 nM | 341 nM |
| UUUGUAUAGGGAAGGAGCGUGAAUGAUAAAGAAUAUAGUGAUGUUAUAUAGAAGAAAGAAUCACAGGUAGGUCGCCCGGAGGAGG [SSArgB.H] | – | – | – | – | – | 599 nM | 491 nM | 552 nM | 450 nM | 361 nM |
| UUUUAAAUGUCUGAUACCAGAGAAAAUAUAUGUAGUGAUGUUAUAUACAAAUUAAAUAAGCUCCCUUGGCAGCAGUAUUAAUUUU [AstrosExc-TheB#10] | – | – | – | – | – | 628 nM | 694 nM | 758 nM | 761 nM | 518 nM |
| UUUUAAUAAAAGGAUACCAGUACAAAUAAAGUACAUUAAUAGUAGAGUGAUGUUCUAAAGUACCCUUGGCAGCUUAGAGUAAGUU [#17 K4 Theophylline B Exclusion] | – | – | – | – | – | 120 nM | 253 nM | 160 nM | 228 nM | 85.1 nM |
| UUUUAUUAAUUCUUCUAGUGAUGUUAGAUACGAGGACCGGUACGGCCGCCACUCGCUUAUUGGUUUAUAAAUUUUAUAUUAUUUA [JR_SSTryptoA_Sub016] | – | – | – | – | – | 292 nM | 296 nM | 286 nM | 294 nM | 249 nM |
| UUUUGGUUCUGAGGAUAUUCGAAGAAAUAUAGUGAUGUUAUAUAAGGAGGAGGAUGGAGGGAGGAAGGAGAAGGCAGAAGAGGAG [ExFMNB.I] | – | – | – | – | – | 890 nM | 492 nM | 700 nM | 923 nM | 417 nM |
| UUUUUAAUCGCAGAUACCAGUCCAGAAUGAAUACUAUAGUGAUGUUAUAAUAAAGGGAAGGACCCUUGGCAGCUGUACUAUAUUU [AstrosSsTheB#6] | – | – | – | – | – | 412 nM | 308 nM | 398 nM | 300 nM | 299 nM |
| UUUUUAUGCAGUGAUGUUGCUAAUAUAACAGAGGAUAUGCAUUAAUGCAGAAGGCUGAAAUACUAUACUUUAAUAUAUUAAAUUU [JR_SSFMNA_Sub015] | – | – | – | – | – | 94.3 nM | 132 nM | 126 nM | 155 nM | 99.5 nM |
| UUUUUAUUCAGUGAUGUUGAAUUUAUAUCAGAGGAUAUGCAUAAAAGCAGAAGGCUGAAAUACUAUACUUUAAUAAAUUAUAUUU [JR_SSFMNA_Sub017] | – | – | – | – | – | 249 nM | 326 nM | 320 nM | 370 nM | 217 nM |
| UUUUUGGUUUAGAGUGAUGUUCCUUGUUUUCGAGGACCGGUACGGCCGCCACUCGAAAAGAAAAGAAAAGAAAAGAGUGAUGUUU [BDazzled - #1 SS Tryptophan A] | – | – | – | – | – | 342 nM | 252 nM | 362 nM | 311 nM | 258 nM |
